Tests used:
[1] = target: p27 (human (endogenous in A2780)) (UniProt P46527); assay: co-IP; endogenous proteins in crude lysates of A2780 cells, untreated or treated with 0.6 uM DAP (up to 36 h; also after control or p21 siRNA); immunoprecipitated with anti-CDK4, anti-CDK2, anti-p21 or anti-p27 antibody, immunoblotted
[2] = target: p21 (human (endogenous in A2780)) (UniProt P38936); assay: as above
UniProt P38936, sequence (P38936 whole entry): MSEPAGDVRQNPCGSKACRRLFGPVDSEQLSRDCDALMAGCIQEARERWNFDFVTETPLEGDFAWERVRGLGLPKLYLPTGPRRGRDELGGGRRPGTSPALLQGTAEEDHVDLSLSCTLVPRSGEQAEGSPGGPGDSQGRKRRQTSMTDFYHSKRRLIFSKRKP

cyclin E, sequence (P24864 whole entry): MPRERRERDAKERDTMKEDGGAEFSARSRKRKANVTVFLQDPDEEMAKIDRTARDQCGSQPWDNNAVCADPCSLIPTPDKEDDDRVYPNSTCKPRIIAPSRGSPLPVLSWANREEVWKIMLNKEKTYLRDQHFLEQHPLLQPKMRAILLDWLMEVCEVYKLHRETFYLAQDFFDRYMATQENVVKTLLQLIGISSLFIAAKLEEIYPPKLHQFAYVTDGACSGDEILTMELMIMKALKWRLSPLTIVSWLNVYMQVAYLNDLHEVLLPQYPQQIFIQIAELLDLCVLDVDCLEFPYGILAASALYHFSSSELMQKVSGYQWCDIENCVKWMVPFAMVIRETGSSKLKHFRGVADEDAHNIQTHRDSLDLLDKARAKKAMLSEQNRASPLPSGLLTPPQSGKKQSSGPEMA
UniProt P46527, sequence (P46527 whole entry): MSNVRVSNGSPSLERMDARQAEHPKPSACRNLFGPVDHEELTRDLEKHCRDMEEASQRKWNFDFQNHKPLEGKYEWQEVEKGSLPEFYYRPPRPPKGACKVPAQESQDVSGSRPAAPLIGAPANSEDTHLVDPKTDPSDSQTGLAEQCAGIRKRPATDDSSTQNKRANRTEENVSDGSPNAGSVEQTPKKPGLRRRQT

percent of CDK2/cyclin E complex bound [1]: 25%
fold of cyclin E co-precipitated with p21 against that with p27 [2]: 3 fold
percent of CDK2/cyclin E complex bound [2]: 75%
Substance: cyclin E (from UniProt P24864 1-410) (natural protein)
